Where two headings read alike, the source gives them in different places.
B1: BARD1 (subunit of the purified BRCA1–BARD1 complex) (natural protein, human, UniProt Q99728 1-777, looked up)
chain: MPDNRQPRNRQPRIRSGNEPRSAPAMEPDGRGAWAHSRAALDRLEKLLRCSRCTNILREPVCLGGCEHIFCSNCVSDCIGTGCPVCYTPAWIQDLKINRQLDSMIQLCSKLRNLLHDNELSDLKEDKPRKSLFNDAGNKKNSIKMWFSPRSKKVRYVVSKASVQTQPAIKKDASAQQDSYEFVSPSPPADVSERAKKASARSGKKQKKKTLAEINQKWNLEAEKEDGEFDSKEESKQKLVSFCSQPSVISSPQINGEIDLLASGSLTESECFGSLTEVSLPLAEQIESPDTKSRNEVVTPEKVCKNYLTSKKSLPLENNGKRGHHNRLSSPISKRCRTSILSTSGDFVKQTVPSENIPLPECSSPPSCKRKVGGTSGRKNSNMSDEFISLSPGTPPSTLSSSSYRRVMSSPSAMKLLPNMAVKRNHRGETLLHIASIKGDIPSVEYLLQNGSDPNVKDHAGWTPLHEACNHGHLKVVELLLQHKALVNTTGYQNDSPLHDAAKNGHVDIVKLLLSYGASRNAVNIFGLRPVDYTDDESMKSLLLLPEKNESSSASHCSVMNTGQRRDGPLVLIGSGLSSEQQKMLSELAVILKAKKYTEFDSTVTHVVVPGDAVQSTLKCMLGILNGCWILKFEWVKACLRRKVCEQEEKYEIPEGPRRSRLNREQLLPKLFDGCYFYLWGTFKHHPKDNLIKLVTAGGGQILSRKPKPDSDVTQTINTVAYHARPDSDQRFCTQYIIYEDLCNYHPERVRQGKVWKAPSSWFIDCVMSFELLPLDS
B2: GFP-WRN (enzyme)
chain: not shown
B3: GST-tagged BLM fragment, residues 2–635 (domain or fragment, human, UniProt P54132 2-635, looked up)
chain: AAVPQNNLQEQLERHSARTLNNKLSLSKPKFSGFTFKKKTSSDNNVSVTNVSVAKTPVLRNKDVNVTEDFSFSEPLPNTTNQQRVKDFFKNAPAGQETQRGGSKSLLPDFLQTPKEVVCTTQNTPTVKKSRDTALKKLEFSSSPDSLSTINDWDDMDDFDTSETSKSFVTPPQSHFVRVSTAQKSKKGKRNFFKAQLYTTNTVKTDLPPPSSESEQIDLTEEQKDDSEWLSSDVICIDDGPIAEVHINEDAQESDSLKTHLEDERDNSEKKKNLEEAELHSTEKVPCIEFDDDDYDTDFVPPSPEEIISASSSSSKCLSTLKDLDTSDRKEDVLSTSKDLLSKPEKMSMQELNPETSTDCDARQISLQQQLIHVMEHICKLIDTIPDDKLKLLDCGNELLQQRNIRRKLLTEVDFNKSDASLLGSLWRYRPDSLDGPMEGDSCPTGNSMKELNFSHLPSNSVSPGDCLLTTTLGKTGFSATRKNLFERPLFNTHLQKSFVSSNWAETPRLGKKNESSYFPGNVLTSTAVKDQNKHTASINDLERETQPSYDIDNFDIDDFDDDDDWEDIMHNLAASKSSTAAYQPIKEGRPIKSVSERLSSAKTDCLPVSSTAQNINFSESIQNYTDKSAQNLA
B4: GST-tagged BLM fragment, residues 636–1298 (domain or fragment)
chain: not shown
B5: GST-tagged BLM fragment, residues 636–857 (domain or fragment)
chain: not shown

Assays:
[1] = biological target: BRCA1 (subunit of the purified BRCA1–BARD1 complex) (human, UniProt P38398 1-1863); experiment: mass photometry
Chain of BRCA1 (subunit of the purified BRCA1–BARD1 complex) (P38398 whole entry, one chain of several): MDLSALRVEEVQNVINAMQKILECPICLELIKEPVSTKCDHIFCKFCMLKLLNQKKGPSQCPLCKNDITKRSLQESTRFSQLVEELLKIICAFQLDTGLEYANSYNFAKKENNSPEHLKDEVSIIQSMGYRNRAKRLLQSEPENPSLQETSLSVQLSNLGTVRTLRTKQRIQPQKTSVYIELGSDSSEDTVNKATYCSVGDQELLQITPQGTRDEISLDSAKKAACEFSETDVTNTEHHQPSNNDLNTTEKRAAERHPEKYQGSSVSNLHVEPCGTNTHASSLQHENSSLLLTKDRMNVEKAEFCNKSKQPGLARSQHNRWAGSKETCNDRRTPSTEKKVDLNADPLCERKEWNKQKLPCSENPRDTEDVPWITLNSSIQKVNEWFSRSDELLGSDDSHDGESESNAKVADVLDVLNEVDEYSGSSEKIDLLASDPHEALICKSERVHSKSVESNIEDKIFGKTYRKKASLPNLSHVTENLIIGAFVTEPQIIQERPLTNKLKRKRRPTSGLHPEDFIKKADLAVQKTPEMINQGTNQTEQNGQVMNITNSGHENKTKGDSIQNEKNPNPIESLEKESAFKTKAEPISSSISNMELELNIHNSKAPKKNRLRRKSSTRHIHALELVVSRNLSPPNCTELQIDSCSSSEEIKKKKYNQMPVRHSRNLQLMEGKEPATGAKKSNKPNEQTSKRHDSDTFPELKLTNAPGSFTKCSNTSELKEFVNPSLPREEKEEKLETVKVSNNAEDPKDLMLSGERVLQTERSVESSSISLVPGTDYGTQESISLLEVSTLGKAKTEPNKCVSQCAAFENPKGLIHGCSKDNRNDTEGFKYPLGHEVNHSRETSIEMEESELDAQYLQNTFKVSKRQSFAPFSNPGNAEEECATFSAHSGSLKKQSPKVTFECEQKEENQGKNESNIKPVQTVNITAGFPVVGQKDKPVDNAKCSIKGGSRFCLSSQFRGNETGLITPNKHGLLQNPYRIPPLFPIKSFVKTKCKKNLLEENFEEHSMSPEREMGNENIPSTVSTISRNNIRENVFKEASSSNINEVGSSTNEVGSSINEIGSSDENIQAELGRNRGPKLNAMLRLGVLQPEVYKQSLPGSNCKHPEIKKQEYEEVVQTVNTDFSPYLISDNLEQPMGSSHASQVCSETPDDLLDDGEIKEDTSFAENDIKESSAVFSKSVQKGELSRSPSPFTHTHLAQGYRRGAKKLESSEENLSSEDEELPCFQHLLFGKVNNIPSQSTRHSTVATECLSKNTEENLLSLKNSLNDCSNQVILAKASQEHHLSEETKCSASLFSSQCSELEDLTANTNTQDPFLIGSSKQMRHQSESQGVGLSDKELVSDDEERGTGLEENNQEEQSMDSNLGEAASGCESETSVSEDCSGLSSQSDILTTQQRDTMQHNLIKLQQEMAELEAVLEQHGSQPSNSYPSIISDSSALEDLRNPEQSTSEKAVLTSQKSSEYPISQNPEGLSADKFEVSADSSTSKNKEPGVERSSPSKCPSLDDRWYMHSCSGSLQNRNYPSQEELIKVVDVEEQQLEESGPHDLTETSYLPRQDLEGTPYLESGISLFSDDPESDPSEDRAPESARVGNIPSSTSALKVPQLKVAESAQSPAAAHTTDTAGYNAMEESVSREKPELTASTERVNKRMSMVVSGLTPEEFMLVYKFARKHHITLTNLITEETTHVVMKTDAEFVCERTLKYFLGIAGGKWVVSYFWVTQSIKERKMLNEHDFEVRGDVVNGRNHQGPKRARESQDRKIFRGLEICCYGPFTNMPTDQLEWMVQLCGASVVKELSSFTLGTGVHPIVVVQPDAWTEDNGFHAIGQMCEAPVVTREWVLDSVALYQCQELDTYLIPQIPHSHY

BRCA1–BARD1 complex [2] = biological target: T1, BRCA1–BARD1 complex (human, UniProt P38398 1-1863; Q99728 1-777); experiment: pull-down
T1 sequence (P38398 whole entry, one chain of several): as above

BRCA1–BARD1 complex [3] = biological target: T1, BRCA1–BARD1 complex; experiment: pull-down; remark: listed apart in the source

Binder | binding result (BRCA1–BARD1 complex [3]) | further results
B1 |  | stoichiometry N [1]: 1
B2 |  | binding result (BRCA1–BARD1 complex [2]): binds
B3 | binds | 
B4 | binds | 
B5 | binds | 

Source: PMC11539920 (Nature, 2024)
